Values of other authors as cited in article PMC4004251.

Key:
Settings in all cases: folded GB1 (the article states the structure is stable above pH 3)
Glu15 = Glu15 (UniProt position 241, KTLKGETTTEA)
Glu27 = Glu27 (UniProt position 253, DAATAEKVFKQ)
Glu42 = Glu42 (UniProt position 268, NGVDGEWTYDD)

Q: Which pKa (Glu15) does the source give for “Immunoglobulin G-binding protein G, B1 domain (GB1) (Streptococcus sp. group G)” here?
A: near 4.5

Q: And the pKa (Glu27)?
A: about 4.5

Q: What about the pKa (Glu42) of the same substance?
A: about 4.5
